Two molecules from article PMC10454854, “Structural and Biochemical Analysis of the Recombination Mediator Protein RecR from Campylobacter jejuni” (International Journal of Molecular Sciences, 2023) can be followed below.

One data set concerns the target T1, cjRecR (Campylobacter jejuni, UniProt Q9PN35 1-190).
T1 sequence: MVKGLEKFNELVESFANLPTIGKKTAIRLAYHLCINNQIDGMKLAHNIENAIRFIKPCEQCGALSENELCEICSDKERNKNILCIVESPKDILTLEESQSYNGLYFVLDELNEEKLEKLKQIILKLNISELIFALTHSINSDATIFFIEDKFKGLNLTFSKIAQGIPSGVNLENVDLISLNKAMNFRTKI
In words: fluorescence polarization; Fluorescence polarization: 0.8 nM fluorescein 40-mer ssDNA, protein up to 100 uM, one-site fit; buffer, salt, pH and temperature not stated. The settings on record: protein: recombinant; tags: His6 tag removed with thrombin; chain copies: 4; single strand.

Data set [1] concerns the molecule itself. In words: SEC; cjRecR alone (~300 μg in 300 μL), Superdex 200 10/300, 20 mM Tris pH 8.0, 150 mM NaCl, 5 mM βME; size against gel-filtration standards. Background: In gel filtration, larger molecules generally elute earlier.
Data set [2] deals with the molecule itself. In words: crystal structure; crystal of cjRecR (residues 1-190), four subunits in the asymmetric unit; sitting drop, 18 °C, 17% ethanol, 0.1 M Hepes pH 7.5, 0.25 M magnesium chloride; 2.6 Å.

What is called Kd is a measure of binding affinity in units of concentration. Take TTATAGGCATATAGGAGTAATTTTCTTGGGCTATGCAGTA (ssDNA) [40-mer ssDNA]: the dissociation constant Kd with cjRecR turned out to be 6.8 µM.

B1: Campylobacter jejuni RecR (natural protein, UniProt Q9PN35 1-190, looked up)
chain: T1 sequence
notes: RecR of Campylobacter jejuni subsp. jejuni (ATCC 33291), residues 1-190; cloned by PCR from genomic DNA; Expressed from a pET49b variant with an N-terminal hexahistidine tag and a thrombin site; Residues 1-189 are seen in the structure; also called cjRecR; source: E. coli BL21 (DE3), purified (Ni-NTA, thrombin cleavage, Mono Q anion exchange); not shown: His6, N-terminal, cleaved
For orientation: stoichiometry N means the number of molecules, sites or subunits per partner or assembly. Regarding B1, the “stoichiometry N” value in data set [1] worked out at 2; in data set [2], 4.
